Measurements reported in patent US20240117018A1.

Columns and labels:
Assay in all cases: cell-based or functional assay
[1] = biological target: HIV-1 Env of pseudovirus CAP45.2.00.G3 (HIV-1)
[2] = biological target: HIV-1 Env of pseudovirus CNE53 (HIV-1)
[3] = biological target: HIV-1 Env of pseudovirus C2101.c01 (HIV-1)
[4] = biological target: HIV-1 Env of pseudovirus CNE17 (HIV-1)
[5] = biological target: HIV-1 Env of pseudovirus 3415.v1.c1 (HIV-1)
[6] = biological target: HIV-1 Env of pseudovirus Ce2010_F5 (HIV-1)
[7] = biological target: HIV-1 Env of pseudovirus 1394C9G1(Rev-) (HIV-1)
[8] = biological target: HIV-1 Env of pseudovirus TRO.11 (HIV-1)
[9] = biological target: HIV-1 Env of pseudovirus HIV-16055-2.3 (HIV-1)
[10] = biological target: HIV-1 Env of pseudovirus 1056_10_TA11_1826 (HIV-1)
[11] = biological target: HIV-1 Env of pseudovirus 6244_13_B5_4576 (HIV-1)
[12] = biological target: HIV-1 Env of pseudovirus 1012_11_TC21_3257 (HIV-1)
[13] = biological target: HIV-1 Env of pseudovirus CNE8 (HIV-1)
[14] = biological target: HIV-1 Env of pseudovirus TRJO4551.58 (HIV-1)
[15] = biological target: HIV-1 Env of pseudovirus 246F C1G (HIV-1)
[16] = biological target: HIV-1 Env of pseudovirus Du422.1 (HIV-1)
[17] = biological target: HIV-1 Env of pseudovirus 6240_08_TA5_4622 (HIV-1)
[18] = biological target: HIV-1 Env of pseudovirus T250-4 (HIV-1)
[19] = biological target: HIV-1 Env of pseudovirus 0260.v5.c36 (HIV-1)
[20] = biological target: HIV-1 Env of pseudovirus ZM109F.PB4 (HIV-1)
[21] = biological target: HIV-1 Env of pseudovirus 3365.v2.c2 (HIV-1)
[22] = biological target: HIV-1 Env of pseudovirus Ce1172_H1 (HIV-1)
[23] = biological target: HIV-1 Env of pseudovirus CNE52 (HIV-1)
[24] = biological target: HIV-1 Env of pseudovirus CNE58 (HIV-1)
[25] = biological target: HIV-1 Env of pseudovirus AC10.0.29 (HIV-1)
[26] = biological target: HIV-1 Env of pseudovirus ZM53M.PB12 (HIV-1)
[27] = biological target: HIV-1 Env of pseudovirus ZM249M.PL1 (HIV-1)
[28] = biological target: HIV-1 Env of pseudovirus Ce2060_G9 (HIV-1)
[29] = biological target: HIV-1 Env of pseudovirus RHPA4259.7 (HIV-1)
[30] = biological target: HIV-1 Env of pseudovirus Ce704809221_1B3 (HIV-1)
[31] = biological target: HIV-1 Env of pseudovirus Ce0393_C3 (HIV-1)
[32] = biological target: HIV-1 Env of pseudovirus CNE30 (HIV-1)
[33] = biological target: HIV-1 Env of pseudovirus 7030102001E5(Rev-) (HIV-1)
[34] = biological target: HIV-1 Env of pseudovirus ZM214M.PL15 (HIV-1)
[35] = biological target: HIV-1 Env of pseudovirus Q461.e2 (HIV-1)
[36] = biological target: HIV-1 Env of pseudovirus Q842.d12 (HIV-1)
[37] = biological target: HIV-1 Env of pseudovirus Du172.17 (HIV-1)

Substance: N49P7.1 (antibody)
- IC50 [1]: 0.086 µg/mL
- IC80 [1]: 0.567 µg/mL
- MPI [1]: 100
- IC50 [2]: 0.066 µg/mL
- IC80 [2]: 0.228 µg/mL
- MPI [2]: 100
- IC50 [3]: 0.076 µg/mL
- IC80 [3]: 0.425 µg/mL
- MPI [3]: 100
- IC50 [4]: 0.254 µg/mL
- IC80 [4]: 0.86 µg/mL
- MPI [4]: 100
- IC50 [5]: 0.191 µg/mL
- IC80 [5]: 0.647 µg/mL
- MPI [5]: 100
- IC50 [6]: 0.055 µg/mL
- IC80 [6]: 0.208 µg/mL
- MPI [6]: 100
- IC50 [7]: 4.37 µg/mL
- IC80 [7]: 30.9 µg/mL
- MPI [7]: 88
- IC50 [8]: 0.055 µg/mL
- IC80 [8]: 0.191 µg/mL
- MPI [8]: 100
- IC50 [9]: 0.088 µg/mL
- IC80 [9]: 0.318 µg/mL
- MPI [9]: 100
- IC50 [10]: 0.171 µg/mL
- IC80 [10]: 0.603 µg/mL
- MPI [10]: 100
- IC50 [11]: 0.184 µg/mL
- IC80 [11]: 0.493 µg/mL
- MPI [11]: 100
- IC50 [12]: 0.063 µg/mL
- IC80 [12]: 0.176 µg/mL
- MPI [12]: 100
- IC50 [13]: 0.048 µg/mL
- IC80 [13]: 0.167 µg/mL
- MPI [13]: 100
- IC50 [14]: 0.156 µg/mL
- IC80 [14]: 0.529 µg/mL
- MPI [14]: 100
- IC50 [15]: 0.049 µg/mL
- IC80 [15]: 0.165 µg/mL
- MPI [15]: 100
- IC50 [16]: 3.76 µg/mL
- IC80 [16]: 15.7 µg/mL
- MPI [16]: 93
- IC50 [17]: 0.509 µg/mL
- IC80 [17]: 1.95 µg/mL
- MPI [17]: 100
- IC50 [18]: 2.27 µg/mL
- IC80 [18]: 24.7 µg/mL
- MPI [18]: 89
- IC50 [19]: 0.497 µg/mL
- IC80 [19]: 1.51 µg/mL
- MPI [19]: 100
- IC50 [20]: 0.055 µg/mL
- IC80 [20]: 0.199 µg/mL
- MPI [20]: 100
- IC50 [21]: 0.088 µg/mL
- IC80 [21]: 0.289 µg/mL
- MPI [21]: 100
- IC50 [22]: 17.1 µg/mL
- IC80 [22]: > 50 µg/mL
- MPI [22]: 78
- IC50 [23]: 0.021 µg/mL
- IC80 [23]: 0.058 µg/mL
- MPI [23]: 100
- IC50 [24]: 0.049 µg/mL
- IC80 [24]: 0.107 µg/mL
- MPI [24]: 100
- IC50 [25]: 5.31 µg/mL
- IC80 [25]: 46.8 µg/mL
- MPI [25]: 85
- IC50 [26]: 0.287 µg/mL
- IC80 [26]: 1 µg/mL
- MPI [26]: 100
- IC50 [27]: 0.071 µg/mL
- IC80 [27]: 0.239 µg/mL
- MPI [27]: 100
- IC50 [28]: 0.473 µg/mL
- IC80 [28]: 2.41 µg/mL
- MPI [28]: 100
- IC50 [29]: 0.108 µg/mL
- IC80 [29]: 0.292 µg/mL
- MPI [29]: 100
- IC50 [30]: 0.211 µg/mL
- IC80 [30]: 1.35 µg/mL
- MPI [30]: 100
- IC50 [31]: 0.23 µg/mL
- IC80 [31]: 1.02 µg/mL
- MPI [31]: 100
- IC50 [32]: 0.307 µg/mL
- IC80 [32]: 1.01 µg/mL
- MPI [32]: 100
- IC50 [33]: 0.11 µg/mL
- IC80 [33]: 0.498 µg/mL
- MPI [33]: 100
- IC50 [34]: 0.257 µg/mL
- IC80 [34]: 0.853 µg/mL
- MPI [34]: 100
- IC50 [35]: 0.329 µg/mL
- IC80 [35]: 1.14 µg/mL
- MPI [35]: 100
- IC50 [36]: 0.028 µg/mL
- IC80 [36]: 0.08 µg/mL
- MPI [36]: 100
- IC50 [37]: 0.185 µg/mL
- IC80 [37]: 0.748 µg/mL
- MPI [37]: 100
